Assay results from patent US20100048709A1 (UNIVERSITY OF BRITISH COLUMBIA, published 2010).

How the values were obtained:
[1] = molecular target: T1, recombinant rat thioredoxin-fused AR ligand binding domain (PanVera, 48.4 kDa), P15207
T1 chain: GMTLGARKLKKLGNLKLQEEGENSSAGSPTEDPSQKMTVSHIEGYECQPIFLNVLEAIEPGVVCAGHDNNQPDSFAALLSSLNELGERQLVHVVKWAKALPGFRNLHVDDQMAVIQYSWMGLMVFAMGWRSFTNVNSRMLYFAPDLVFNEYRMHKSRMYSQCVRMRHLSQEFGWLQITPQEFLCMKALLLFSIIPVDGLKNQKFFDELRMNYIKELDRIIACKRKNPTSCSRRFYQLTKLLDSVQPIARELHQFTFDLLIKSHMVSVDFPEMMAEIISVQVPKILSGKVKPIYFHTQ

[2] = molecular target: T2, recombinant rat thioredoxin-fused AR ligand binding domain (PanVera, 48.4 kDa) (rat, UniProt P15207 606-902); experiment: cell-based or functional assay
T2 sequence (looked up): T1 chain

B1: purified His-tagged-DDC protein (6x-His N-terminal fusion of dopa decarboxylase) (enzyme, human, UniProt P20711 2-480, looked up, not shown: small tags and cut ends)
chain: NASEFRRRGKEMVDYMANYMEGIEGRQVYPDVEPGYLRPLIPAAAPQEPDTFEDIINDVEKIIMPGVTHWHSPYFFAYFPTASSYPAMLADMLCGAIGCIGFSWAASPACTELETVMMDWLGKMLELPKAFLNEKAGEGGGVIQGSASEATLVALLAARTKVIHRLQAASPELTQAAIMEKLVAYSSDQAHSSVERAGLIGGVKLKAIPSDGNFAMRASALQEALERDKAAGLIPFFMVATLGTTTCCSFDNLLEVGPICNKEDIWLHVDAAYAGSAFICPEFRHLLNGVEFADSFNFNPHKWLLVNFDCSAMWVKKRTDLTGAFRLDPTYLKHSHQDSGLITDYRHWQIPLGRRFRSLKMWFVFRMYGVKGLQAYIRKHVQLSHEFESLVRQDPRFEICVEVILGLVCFRLKGSNKVNEALLQRINSAKKIHLVPCHLRDKFVLRFAICSRTVESAHVQRAWEHIKELAADVLRAERE
R1881 concentration required to 50% saturate total AR-LBD protein [1]: in the absence of His-DDC, an R1881 concentration of 883 nM was required to 50% saturate total AR-LBD protein, while in the presence of His-DDC a lower androgen amount of 425 nM was necessary
apparent affinity for androgen (R1881) by the AR-LBD, hydroxylapatite pulldown ligand binding assay [2]: 2.1 fold
increase in bound R1881 at 100 nM R1881 [2]: 1.75 fold
increase in bound R1881 at 1000 nM R1881 [2]: 1.71 fold
